Data published in patent publication US20220372155A1 (LYVGEN BIOPHARMA, published 2022).

B1: Ly407 (bispecific antibody, human IgG1, kappa)
heavy: EVQLVESGGGLVQPGGSLRLSCAASGFNIKDTYMHWVRQAPGKGLEWVARIDPANGNSKYADSVKGRFTISADTSKNTAYLQMNSLRAEDTAVYYCAPFGYYVSDYAMAYWGQGTLVTVSSASTKGPSVFPLAPSSKSTSGGTAALGCLVKDYFPEPVTVSWNSGALTSGVHTFPAVLQSSGLYSLSSVVTVPSSSLGTQTYICNVNHKPSNTKVDKKVEPKSCDKTHTCPPCPAPELLGPSVFLFPPKPKDTLMISRTPEVTCVVVDVSHEDPEVKFNWYVDGVEVHNAKTKPREEQYNSTYRVVSVLTVLHQDWLNGKEYKCKVSNKALPAPIEKTISKAKGQPREPQVYTLPPSREEMTKNQVSLTCLVKGFYPSDIAVEWESNGQPENNYKTTPPVLDSDGSFFLYSKLTVDKSRWQQGNVFSCSVMHEALHNHYTQKSLSLSPGK
light: DIQLTQSPSSLSASVGDRVTITCRAGESVDIFGVGFLHWYQQKPGKAPKLLIYRASNLESGVPSRFSGSGSRTDFTLTISSLQPEDFATYYCQQTNEDPYTFGQGTKVEIKRTVAAPSVFIFPPSDEQLKSGTASVVCLLNNFYPREAKVQWKVDNALQSGNSQESVTEQDSKDSTYSLSSTLTLSKADYEKHKVYACEVTHQGLSSPVTKSFNRGECGGGGSGGGGSGGGGSGGGGSDIQMTQSPSSLSASVGDRVTITCKASQNIYIYLNWYQQKPGKAPKLLIYNTNNLQTGVPSRFSGSGSGTDFTLTISSLQPEDFATYYCLQHSSRRTFGGGTKVEIKGGGGSGGGGSGGGGSGGGGSQVQLVESGGGLVQPGGSLKLSCATSGFNFNDYFMNWVRQASGKGLEWVGQIRNKNYNYATYYTESLEGRVTISRDDSKNTAYLQMNSLKTEDTAVYYCTSYYYDGFADYFDYWGQGTTVTVSS
notes: Ly312 HC (IgG1 mutated Fc) + Ly312 LC-TM740 scFv VL-VH
B2: Ly408 (bispecific antibody, human IgG1, kappa)
heavy: B1 heavy
light: DIQLTQSPSSLSASVGDRVTITCRAGESVDIFGVGFLHWYQQKPGKAPKLLIYRASNLESGVPSRFSGSGSRTDFTLTISSLQPEDFATYYCQQTNEDPYTFGQGTKVEIKRTVAAPSVFIFPPSDEQLKSGTASVVCLLNNFYPREAKVQWKVDNALQSGNSQESVTEQDSKDSTYSLSSTLTLSKADYEKHKVYACEVTHQGLSSPVTKSFNRGECGGGGSGGGGSGGGGSGGGGSQVQLVESGGGLVQPGGSLKLSCATSGFNFNDYFMNWVRQASGKGLEWVGQIRNKNYNYATYYTESLEGRVTISRDDSKNTAYLQMNSLKTEDTAVYYCTSYYYDGFADYFDYWGQGTTVTVSSGGGGSGGGGSGGGGSGGGGSDIQMTQSPSSLSASVGDRVTITCKASQNIYIYLNWYQQKPGKAPKLLIYNTNNLQTGVPSRFSGSGSGTDFTLTISSLQPEDFATYYCLQHSSRRTFGGGTKVEIK
notes: Ly312 HC (IgG1 mutated Fc) + Ly312 LC-TM740 scFv VH-VL
B3: Ly409 (bispecific antibody, human IgG1, kappa)
heavy: EVQLVESGGGVVQPGRSLRLSCSASGFDFTTYWMSWVRQAPGKGLEWIGEIHPDSSTINYAPSLKDRFTISRDNAKNTLFLQMDSLRPEDTGVYFCASLYFGFPWFAYWGQGTPVTVSSASTKGPSVFPLAPSSKSTSGGTAALGCLVKDYFPEPVTVSWNSGALTSGVHTFPAVLQSSGLYSLSSVVTVPSSSLGTQTYICNVNHKPSNTKVDKKVEPKSCDKTHTCPPCPAPELLGPSVFLFPPKPKDTLMISRTPEVTCVVVDVSHEDPEVKFNWYVDGVEVHNAKTKPREEQYNSTYRVVSVLTVLHQDWLNGKEYKCKVSNKALPAPIEKTISKAKGQPREPQVYTLPPSREEMTKNQVSLTCLVKGFYPSDIAVEWESNGQPENNYKTTPPVLDSDGSFFLYSKLTVDKSRWQQGNVFSCSVMHEALHNHYTQKSLSLSPGGGGGSGGGGSGGGGSGGGGSDIQMTQSPSSLSASVGDRVTITCLASEDISNDLAWYQQKPGKAPKLLIYFVDRLLDGVPSRFSGSGSGTDFTLTISSLQPEDFATYYCQQSYKYPPTFGQGTKLEIKGGGGSGGGGSGGGGSGGGGSEVQLVESGGGLVQPGGSLRLSCAASGFTFTNYGLHWVRQAPGKGLEWVSSISPSGGVTYYRDSVKGRFTISRDNSKNTLYLQMNSLRAEDTAVYYCAKPFLGWGGANWIAHWGQGTLVTVSS
light: DIQLTQSPSSLSASVGDRVTITCKASQDVGTSVAWYQQKPGKAPKLLIYWTSTRHTGVPSRFSGSGSGTDFTFTISSLQPEDIATYYCQQYSLYRSFGQGTKVEIKRTVAAPSVFIFPPSDEQLKSGTASVVCLLNNFYPREAKVQWKVDNALQSGNSQESVTEQDSKDSTYSLSSTLTLSKADYEKHKVYACEVTHQGLSSPVTKSFNRGEC
notes: Ly311 HC (IgG1 mutated Fc)-TM559 scFv VL-VH + Ly311 LC
B4: Ly410 (bispecific antibody, human IgG1, kappa)
heavy: EVQLVESGGGVVQPGRSLRLSCSASGFDFTTYWMSWVRQAPGKGLEWIGEIHPDSSTINYAPSLKDRFTISRDNAKNTLFLQMDSLRPEDTGVYFCASLYFGFPWFAYWGQGTPVTVSSASTKGPSVFPLAPSSKSTSGGTAALGCLVKDYFPEPVTVSWNSGALTSGVHTFPAVLQSSGLYSLSSVVTVPSSSLGTQTYICNVNHKPSNTKVDKKVEPKSCDKTHTCPPCPAPELLGPSVFLFPPKPKDTLMISRTPEVTCVVVDVSHEDPEVKFNWYVDGVEVHNAKTKPREEQYNSTYRVVSVLTVLHQDWLNGKEYKCKVSNKALPAPIEKTISKAKGQPREPQVYTLPPSREEMTKNQVSLTCLVKGFYPSDIAVEWESNGQPENNYKTTPPVLDSDGSFFLYSKLTVDKSRWQQGNVFSCSVMHEALHNHYTQKSLSLSPGGGGGSGGGGSGGGGSGGGGSEVQLVESGGGLVQPGGSLRLSCAASGFTFTNYGLHWVRQAPGKGLEWVSSISPSGGVTYYRDSVKGRFTISRDNSKNTLYLQMNSLRAEDTAVYYCAKPFLGWGGANWIAHWGQGTLVTVSSGGGGSGGGGSGGGGSGGGGSDIQMTQSPSSLSASVGDRVTITCLASEDISNDLAWYQQKPGKAPKLLIYFVDRLLDGVPSRFSGSGSGTDFTLTISSLQPEDFATYYCQQSYKYPPTFGQGTKLEIK
light: B3 light
notes: Ly311 HC (IgG1 mutated Fc)-TM559 scFv VH-VL + Ly311 LC
B5: Ly406 (bispecific antibody, human IgG1, kappa)
heavy: EVQLVESGGGLVQPGGSLRLSCAASGFNIKDTYMHWVRQAPGKGLEWVARIDPANGNSKYADSVKGRFTISADTSKNTAYLQMNSLRAEDTAVYYCAPFGYYVSDYAMAYWGQGTLVTVSSASTKGPSVFPLAPSSKSTSGGTAALGCLVKDYFPEPVTVSWNSGALTSGVHTFPAVLQSSGLYSLSSVVTVPSSSLGTQTYICNVNHKPSNTKVDKKVEPKSCDKTHTCPPCPAPELLGPSVFLFPPKPKDTLMISRTPEVTCVVVDVSHEDPEVKFNWYVDGVEVHNAKTKPREEQYNSTYRVVSVLTVLHQDWLNGKEYKCKVSNKALPAPIEKTISKAKGQPREPQVYTLPPSREEMTKNQVSLTCLVKGFYPSDIAVEWESNGQPENNYKTTPPVLDSDGSFFLYSKLTVDKSRWQQGNVFSCSVMHEALHNHYTQKSLSLSPGGGGGSGGGGSGGGGSGGGGSQVQLVESGGGLVQPGGSLKLSCATSGFNFNDYFMNWVRQASGKGLEWVGQIRNKNYNYATYYTESLEGRVTISRDDSKNTAYLQMNSLKTEDTAVYYCTSYYYDGFADYFDYWGQGTTVTVSSGGGGSGGGGSGGGGSGGGGSDIQMTQSPSSLSASVGDRVTITCKASQNIYIYLNWYQQKPGKAPKLLIYNTNNLQTGVPSRFSGSGSGTDFTLTISSLQPEDFATYYCLQHSSRRTFGGGTKVEIK
light: DIQLTQSPSSLSASVGDRVTITCRAGESVDIFGVGFLHWYQQKPGKAPKLLIYRASNLESGVPSRFSGSGSRTDFTLTISSLQPEDFATYYCQQTNEDPYTFGQGTKVEIKRTVAAPSVFIFPPSDEQLKSGTASVVCLLNNFYPREAKVQWKVDNALQSGNSQESVTEQDSKDSTYSLSSTLTLSKADYEKHKVYACEVTHQGLSSPVTKSFNRGEC
notes: Ly312 HC (IgG1 mutated Fc)-TM740 scFv VH-VL + Ly312 LC
B6: Ly411 (bispecific antibody, human IgG1, kappa)
heavy: EVQLVESGGGVVQPGRSLRLSCSASGFDFTTYWMSWVRQAPGKGLEWIGEIHPDSSTINYAPSLKDRFTISRDNAKNTLFLQMDSLRPEDTGVYFCASLYFGFPWFAYWGQGTPVTVSSASTKGPSVFPLAPSSKSTSGGTAALGCLVKDYFPEPVTVSWNSGALTSGVHTFPAVLQSSGLYSLSSVVTVPSSSLGTQTYICNVNHKPSNTKVDKKVEPKSCDKTHTCPPCPAPELLGPSVFLFPPKPKDTLMISRTPEVTCVVVDVSHEDPEVKFNWYVDGVEVHNAKTKPREEQYNSTYRVVSVLTVLHQDWLNGKEYKCKVSNKALPAPIEKTISKAKGQPREPQVYTLPPSREEMTKNQVSLTCLVKGFYPSDIAVEWESNGQPENNYKTTPPVLDSDGSFFLYSKLTVDKSRWQQGNVFSCSVMHEALHNHYTQKSLSLSPGK
light: DIQLTQSPSSLSASVGDRVTITCKASQDVGTSVAWYQQKPGKAPKLLIYWTSTRHTGVPSRFSGSGSGTDFTFTISSLQPEDIATYYCQQYSLYRSFGQGTKVEIKRTVAAPSVFIFPPSDEQLKSGTASVVCLLNNFYPREAKVQWKVDNALQSGNSQESVTEQDSKDSTYSLSSTLTLSKADYEKHKVYACEVTHQGLSSPVTKSFNRGECGGGGSGGGGSGGGGSGGGGSDIQMTQSPSSLSASVGDRVTITCLASEDISNDLAWYQQKPGKAPKLLIYFVDRLLDGVPSRFSGSGSGTDFTLTISSLQPEDFATYYCQQSYKYPPTFGQGTKLEIKGGGGSGGGGSGGGGSGGGGSEVQLVESGGGLVQPGGSLRLSCAASGFTFTNYGLHWVRQAPGKGLEWVSSISPSGGVTYYRDSVKGRFTISRDNSKNTLYLQMNSLRAEDTAVYYCAKPFLGWGGANWIAHWGQGTLVTVSS
notes: Ly311 HC (IgG1 mutated Fc) + Ly311 LC-TM559 scFv VL-VH
B7: Ly412 (bispecific antibody, human IgG1, kappa)
heavy: B6 heavy
light: DIQLTQSPSSLSASVGDRVTITCKASQDVGTSVAWYQQKPGKAPKLLIYWTSTRHTGVPSRFSGSGSGTDFTFTISSLQPEDIATYYCQQYSLYRSFGQGTKVEIKRTVAAPSVFIFPPSDEQLKSGTASVVCLLNNFYPREAKVQWKVDNALQSGNSQESVTEQDSKDSTYSLSSTLTLSKADYEKHKVYACEVTHQGLSSPVTKSFNRGECGGGGSGGGGSGGGGSGGGGSEVQLVESGGGLVQPGGSLRLSCAASGFTFTNYGLHWVRQAPGKGLEWVSSISPSGGVTYYRDSVKGRFTISRDNSKNTLYLQMNSLRAEDTAVYYCAKPFLGWGGANWIAHWGQGTLVTVSSGGGGSGGGGSGGGGSGGGGSDIQMTQSPSSLSASVGDRVTITCLASEDISNDLAWYQQKPGKAPKLLIYFVDRLLDGVPSRFSGSGSGTDFTLTISSLQPEDFATYYCQQSYKYPPTFGQGTKLEIK
notes: Ly311 HC (IgG1 mutated Fc) + Ly311 LC-TM559 scFv VH-VL

molecular target: T1, human CD40 expressed on CHO cells (human, UniProt P25942 21-277); assay: FACS, CHO cells
T1 construct: whole, on cells; also used for the reporter cells over-expressing human CD40; also called cellular CD40; CHO-CD40 cells
T1 sequence (P25942 21-277): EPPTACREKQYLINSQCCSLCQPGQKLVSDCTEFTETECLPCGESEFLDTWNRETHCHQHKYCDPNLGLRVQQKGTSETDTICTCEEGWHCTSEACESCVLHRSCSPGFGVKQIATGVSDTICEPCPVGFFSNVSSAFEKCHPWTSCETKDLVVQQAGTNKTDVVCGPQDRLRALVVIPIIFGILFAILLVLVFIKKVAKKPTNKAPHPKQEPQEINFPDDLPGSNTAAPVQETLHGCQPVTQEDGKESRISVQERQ

Binding result, binds:
B1
B2
B3
B4
B5
B6
B7
